Measurements reported in paper doi:10.1101/2024.05.23.595592 (bioRxiv, 2024).
Residue numbers refer to the chain shown, from its start.

T1: TREM2 R47H, biotinylated (human, UniProt Q9NZC2, R47H, biotin on the C-terminal BirA biotinylation sequence (enzymatic, BirA))
T1 sequence: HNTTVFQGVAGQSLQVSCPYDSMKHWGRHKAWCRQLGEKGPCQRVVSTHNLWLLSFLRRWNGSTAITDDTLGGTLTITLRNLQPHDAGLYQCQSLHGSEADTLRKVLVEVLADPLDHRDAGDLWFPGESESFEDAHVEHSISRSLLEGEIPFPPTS

T2: TREM2 R62H, biotinylated (human, UniProt Q9NZC2, R62H, biotin on the C-terminal BirA biotinylation sequence (enzymatic, BirA))
T2 sequence: T1 sequence with H29R, R44H

B1: TREM2 WT, biotinylated (receptor)
chain: T1 sequence with H29R
modifications: biotin on the C-terminal BirA biotinylation sequence (enzymatic, BirA)
B2: Human IL-34 (19-241) (ligand)
chain: LGNEPLEMWPLTQNEECTVTGFLRDKLQYRSRLQYMKHYFPINYKISVPYEGVFRIANVTRLQRAQVSERELRYLWVLVSLSATESVQDVLLEGHPSWKYLQEVETLLLNVQQGLTDVEVSPKVESVLSLLNAPGPNLKLVRPKALLDNCFRVMELLYCSCCKQSSVLNWQDCEVPSPQSCSPEPSLQYAATQLYPPPPWSPSSPPHSTGSVRPVRAQGEGLL

How the values were obtained:
Assay in all cases: BLI
[1] = molecular target: oligomeric amyloid beta 42 (UniProt P05067)
Human IL-34 (19-241) = molecular target: B2
TREM2 R47H, biotinylated = molecular target: T1, TREM2 R47H, biotinylated
TREM2 R62H, biotinylated = molecular target: T2, TREM2 R62H, biotinylated

## B1
[1]
  Kd: 42.5 nM
Human IL-34 (19-241)
  Kd: 16.5 nM

## B2
TREM2 R47H, biotinylated
  fold decrease in KD (affinity) against TREM2 WT: ~4 fold
TREM2 R62H, biotinylated
  fold decrease in KD (affinity) against TREM2 WT: ~4 fold
